Measured values from the nanobody polyreactivity screen of Harvey et al. (2022).

Experiment: yeast display, Sf9 membrane polyspecificity reagent, FACS + sequencing; frameworks hold sequencing errors
Summary of the method: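 Galactose-induced (36–48 hours) yeast carrying a synthetic nanobody display library were exposed to 10% biotinylated, detergent-solubilized Sf9 membrane reagent at 4 °C for 1 hour. FACS followed streptavidin microbead enrichment, using low and high (top ~1%) gates for expression (anti-HA) and reagent binding (streptavidin). Colony PCR, MiSeq 2 × 250 sequencing and CDR-length filtering followed. Labels for polyreactivity reflect the gate of origin.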

Sequence	polyreactivity (PSR sort gate)
QVQLVESGGGLVQAGGSLRLSCAASGRIFVPYLMGWYRQAPGKERELVASISDSDTSTYYADSVKGRFTISRDNAKNTVYLQMNSLKPEDTAVYYCNVDYWGQGTQVTVSS	low polyreactivity
QVQLVESGGGLVQAGGSLRLSCAASGRIFVQNAMGWYRQAPGKERELVAAISISGARTYYADSVKGRFTISRDNAKNSDYLQMNRLKPEDTAVYYCNASYRDEDDYWGQGTQVTVSS	high polyreactivity
QVQLVESGGGLVQAGGSLRLSCAASGRIFVRNAMGWYRQAPGKERELVAAITRTGASTYYADSVKGRFTISRDNAKNTVYLQMNSLKPEDTAVYYCNKEIVWHLWYESWGQGTQVTVSS	high polyreactivity
QVQLVESGGGLVQAGGSLRLSCAASGRIFVRNAMGWYRQAPRKERELVADITNGGSTNYADSVKGRFTISRDNGMNTVYLQMNSLKPEDTAVYYCAADTLGVYDGDYWGQGTQVTVSS	low polyreactivity
QVQLVESGGGLVQAGGSLRLSCAASGRIFVRYAMGWYRQAPGKERELVAAINWRGSSTYYADSVKGRFTISRDNAKNTVYLQMTSLKPEDTAVYYCNTAQRYRVYRYDYWGQGTQVTVSS	high polyreactivity
QVQLVESGGGLVQAGGSLRLSCAASGRIFVSNGMGWYRQAPGKERELVAVIRYSTGSTYYADSVKGRFTFSRDNAKTTVYLQMNCLKPEDTAVYYCAARNPFFEPSEYDYWGQGTQVTVSS	low polyreactivity
QVQLVESGGGLVQAGGSLRLSCAASGRIFVTNAMGWYRQAPGKERELVAAITRGGSTNYADSVKGRFTISRDNAKNTVYLQMNSLKPEDTAVYYCAAKRRYYGPWSRIGYDYWGQGTQVTVSS	low polyreactivity
QVQLVESGGGLVQAGGSLRLSCAASGRIFVTNAMGWYRQAPGNERELVAGLNRSGDITYYADSVKGRFTISRDNAKNTVYLQMNSLKPEDTAVYYCAVDFYVYRWSPYGDVYRYDYWGQGTQVTVSS	high polyreactivity
QVQLVESGGGLVQAGGSLRLSCAASGRIFVVNAMGWYRQAPGKERELVAAISSSSDSTYYADSVKGRFTISRDNAKNTVYLQMNSLKPEDTAVFYCAADYHYDGYWIYDYWGQGTQVTVSS	high polyreactivity
QVQLVESGGGLVQAGGSLRLSCAASGRIFVVYAMGGYRQAPGKERDLVASISRGGRTYYADSVKGRFTISRDNAKNTVYLQMNSLKPEDTAVYYCAVVVYLKNRDLFDYWGQGTQVTVSS	low polyreactivity
QVQLVESGGGLVQAGGSLRLSCAASGRIFVVYAMGWSRQAPGKERELVAAIRSGGSTNYADSVKGRFTISRDNAKNTVYFQLNSLKPEDTAVYNCAARKWHSAYDYWGQGTQVTVSS	high polyreactivity
QVQLVESGGGLVQAGGSLRLSCAASGRIFVVYAMGWYRQAPGKERELVAAITGGGRTNYADSVKGRFTISRDNAKNTVYLQKNSLKPGDSAVYYCAAGTRSDARRYYYWGQGTQVTVSS	low polyreactivity
QVQLVESGGGLVQAGGSLRLSCAASGRIFVVYAMGWYRQAPGKERELVAAITGGGRTNYADSVKGRFTISRDNAKNTVYLQMNSLKPEDTAVYYCAAGTRSDARRYYYWGQGTQVTVSS	low polyreactivity
QVQLVESGGGLVQAGGSLRLSCAASGRIFVVYAMGWYRQAPGKERELVAAITYGGGSTHYADSVKGRFTISRDNAKNTVYLQMNSLKPVDTAVYYCAADVYLVKYDYWGQGTQVTVSS	low polyreactivity
QVQLVESGGGLVQAGGSLRLSCAASGRIFVVYAMGWYRQAPGKERELVAAITYGGGSTHYADSVKGRFTISRDNAMNTVYLQMISLKPEDTAVYYCAADLFYHSYGYEYWGQGTQVTVSS	low polyreactivity
QVQLVESGGGLVQAGGSLRLSCAASGRIFVYNAMGWYRQAPGKERELVAAISGGGSTYYADSVKGRFTISRDNAKNTVYLQMNSLKPEDTAVYYCNTVFSGYARGWFQPAYNYWGQGTQVTVSS	high polyreactivity
QVQLVESGGGLVQAGGSLRLSCAASGRIFVYNAMGWYRQAPGKERELVAGITASGGSTYYADSGKGRFTISRDNAKNTVYLQMNSLKPEDTAVYYCAATRYKRRYYYWGQGTQVTVSS	high polyreactivity
